One assay concerns the target T1, C3G-AAPA (human, UniProt Q13905-1 4-1077, P283A | P284A | L286 | P287 | P289A | P453A | P454A | L456A | P457A | K459A | …).
T1 construct: human C3G isoform a, residues 4-1077; only P3 kept, P1, P2 and P4 mutated to Ala; source: E. coli BL21 (DE3), purified (IMAC, TEV digestion, reversed IMAC, SEC); not shown: His, N-terminal, cleaved; Halo, N-terminal, cleaved
T1 sequence (looked up): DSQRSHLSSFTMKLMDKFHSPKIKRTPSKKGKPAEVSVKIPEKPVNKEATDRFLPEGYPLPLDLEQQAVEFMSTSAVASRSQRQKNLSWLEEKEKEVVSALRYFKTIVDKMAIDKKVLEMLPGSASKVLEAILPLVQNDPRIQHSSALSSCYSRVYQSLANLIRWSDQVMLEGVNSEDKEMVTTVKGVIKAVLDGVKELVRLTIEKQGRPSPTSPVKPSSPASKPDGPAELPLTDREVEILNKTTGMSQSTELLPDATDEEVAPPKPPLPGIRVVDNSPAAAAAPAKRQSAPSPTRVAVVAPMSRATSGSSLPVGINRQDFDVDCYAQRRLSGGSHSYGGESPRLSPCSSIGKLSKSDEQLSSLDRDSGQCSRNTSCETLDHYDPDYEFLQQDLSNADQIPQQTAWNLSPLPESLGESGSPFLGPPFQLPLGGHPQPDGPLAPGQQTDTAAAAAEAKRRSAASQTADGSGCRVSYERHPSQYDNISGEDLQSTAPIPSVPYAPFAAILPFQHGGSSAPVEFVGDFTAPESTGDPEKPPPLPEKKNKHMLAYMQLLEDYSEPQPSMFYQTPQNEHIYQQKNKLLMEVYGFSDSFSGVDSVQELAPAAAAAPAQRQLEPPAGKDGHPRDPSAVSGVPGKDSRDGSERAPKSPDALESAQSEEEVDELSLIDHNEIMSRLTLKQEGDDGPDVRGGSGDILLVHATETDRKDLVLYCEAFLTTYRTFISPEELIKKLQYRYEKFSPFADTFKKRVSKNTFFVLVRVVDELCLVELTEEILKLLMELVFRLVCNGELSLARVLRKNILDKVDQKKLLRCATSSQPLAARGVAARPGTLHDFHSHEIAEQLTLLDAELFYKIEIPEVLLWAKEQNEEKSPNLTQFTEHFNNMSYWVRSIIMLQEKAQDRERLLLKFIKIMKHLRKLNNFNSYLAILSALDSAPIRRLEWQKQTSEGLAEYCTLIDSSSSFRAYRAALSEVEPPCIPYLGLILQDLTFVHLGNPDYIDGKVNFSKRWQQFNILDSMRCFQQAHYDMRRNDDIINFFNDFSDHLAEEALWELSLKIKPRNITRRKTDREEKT
In words: ITC; single-PRM mutant of C3G in the cell titrated with CrkL or CrkL-SH3N, 25 °C, 300 mM NaCl, pH 7.5; SEDPHAT, 1:1 heteroassociation model; N is the competent fraction of C3G. The following applies: both partners purified. Background: ITC needs no label: the signal is the heat of the interaction.

The target in assay [1] is T2, Src-phosphorylated C3G-AAAP (human, UniProt Q13905-1 4-1077, P283A | P284A | L286 | P287 | P289A | P453A | P454A | L456A | P457A | K459A | …, phosphotyrosines from phosphorylation in vitro with Src (sites not given)).
T2 construct: human C3G isoform a, residues 4-1077; only P4 kept, P1, P2 and P3 mutated to Ala; also called pC3G-AAAP; source: E. coli BL21 (DE3), purified; phosphorylated in vitro with the recombinant kinase domain of Src, then SEC; not shown: His, N-terminal, cleaved; Halo, N-terminal, cleaved
T2 sequence (looked up): T1 sequence (looked up) with P537A, P538A, L540A, P541A, K543A, A605P, A606P, A608L, A609P, A611K
Described as above. The following applies: both partners purified.

The values that follow come from article PMC9896810, “Crk proteins activate the Rap1 guanine nucleotide exchange factor C3G by segregated adaptor-dependent and -independent mechanisms” (Cell Communication and Signaling : CCS, 2023).

Changes are numbered by the printed parent chain.

B1: CrkL (full-length) (natural protein, human, UniProt P46109 1-303, looked up)
chain: MSSARFDSSDRSAWYMGPVSRQEAQTRLQGQRHGMFLVRDSSTCPGDYVLSVSENSRVSHYIINSLPNRRFKIGDQEFDHLPALLEFYKIHYLDTTTLIEPAPRYPSPPMGSVSAPNLPTAEDNLEYVRTLYDFPGNDAEDLPFKKGEILVIIEKPEEQWWSARNKDGRVGMIPVPYVEKLVRSSPHGKHGNRNSNSYGIPEPAHAYAQPQTTTPLPAVSGSPGAAITPLPSTQNGPVFAKAIQKRVPCAYDKTALALEVGDIVKVTRMNINGQWEGEVNGRKGLFPFTHVKIFDPQNPDENE
notes: human CrkL, residues 1-303, in pETEV15b; also called Crk-like protein; source: E. coli BL21 (DE3), purified (IMAC, TEV digestion, SEC); not shown: His, N-terminal, cleaved
In turn, B1 came in with a Kd with C3G-AAPA of 2100 nM. This lies in the single-digit micromolar range.

B2: CrkL-SH3N (domain or fragment, human, UniProt P46109 125-182, looked up)
chain: LEYVRTLYDFPGNDAEDLPFKKGEILVIIEKPEEQWWSARNKDGRVGMIPVPYVEKLV
notes: human CrkL, SH3N domain, residues 125-182, in pETEV15b; source: E. coli BL21 (DE3), purified (IMAC, TEV digestion, SEC); not shown: His, N-terminal, cleaved
Take B2: in assay [1], the Kd came out at 2400 nM and the “stoichiometry N” value worked out at 0.74.

Broadly, the Kd is the constant that tells how readily two partners part at equilibrium. The low end stands for tighter binding, the high end for weaker binding. What is called stoichiometry N is the number of molecules, sites or subunits per partner or assembly.
